The target of assay [1] is T1, His-tagged mouse CD38 (ACRO Biosystems #CD8-M5223) (mouse, UniProt P56528 45-304).
T1 construct: bought recombinant protein with His tag; also called Murine
T1 sequence (looked up): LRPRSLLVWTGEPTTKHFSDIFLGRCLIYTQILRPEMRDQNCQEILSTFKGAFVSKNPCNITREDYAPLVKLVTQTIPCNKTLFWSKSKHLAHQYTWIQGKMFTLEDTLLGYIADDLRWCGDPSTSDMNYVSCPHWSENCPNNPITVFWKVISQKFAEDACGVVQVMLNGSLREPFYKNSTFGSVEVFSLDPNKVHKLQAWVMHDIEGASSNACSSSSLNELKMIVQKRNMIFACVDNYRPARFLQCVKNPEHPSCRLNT
Kind of assay: SPR, captured scFv-Fc, His-CD38 analyte.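 Note: SPR on a Carterra LSA, scFv-Fc captured by anti-human Fc on HC30M chip, His-tagged CD38 (human, mouse, cynomolgus) flowed as analyte in eight 1:2 steps from 400 nM.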 On the technique in general: In SPR one partner is held on a chip, and binding of the other changes the refractive index at the surface.

The target of assay [2] is T2, His-tagged human CD38 (ACRO Biosystems cat #CD8-H5224) (human, UniProt P28907 43-300).
T2 construct: bought recombinant protein with His tag
Kind of assay: SPR, captured scFv-Fc, His-CD38 analyte.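 Note: SPR on a Carterra LSA, scFv-Fc captured by anti-human Fc on HC30M chip, His-tagged CD38 (human, mouse, cynomolgus) flowed as analyte in eight 1:2 steps from 400 nM.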

Assay [3] deals with T3, His-tagged cynomolgus monkey CD38 (ACRO Biosystems cat #CD8-05223) (cynomolgus monkey, UniProt Q5VAN0 43-301).
T3 construct: bought recombinant protein with His tag
Kind of assay: SPR, captured scFv-Fc, His-CD38 analyte.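 Note: SPR on a Carterra LSA, scFv-Fc captured by anti-human Fc on HC30M chip, His-tagged CD38 (human, mouse, cynomolgus) flowed as analyte in eight 1:2 steps from 400 nM.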

Assay [4] concerns the target T4, human CD38 on transiently transfected Expi293 cells (Origene #SC321273) (human, UniProt P28907 1-300).
T4 construct: whole, on cells; also called Human (FACs)
Kind of assay: flow cytometry, transfected Expi293 cells.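 Note: antibody binding to Expi293 cells transiently expressing human or murine CD38, antibodies applied at 10 ug/ml for 60 min on ice, read by flow cytometry as percent gated cells.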

Assay [5] concerns the target T5, murine CD38 on transiently transfected Expi293 cells (Origene MC208001) (murine, UniProt P56528 1-304).
T5 construct: whole, on cells; also called Murine (FACs)
T5 sequence (looked up): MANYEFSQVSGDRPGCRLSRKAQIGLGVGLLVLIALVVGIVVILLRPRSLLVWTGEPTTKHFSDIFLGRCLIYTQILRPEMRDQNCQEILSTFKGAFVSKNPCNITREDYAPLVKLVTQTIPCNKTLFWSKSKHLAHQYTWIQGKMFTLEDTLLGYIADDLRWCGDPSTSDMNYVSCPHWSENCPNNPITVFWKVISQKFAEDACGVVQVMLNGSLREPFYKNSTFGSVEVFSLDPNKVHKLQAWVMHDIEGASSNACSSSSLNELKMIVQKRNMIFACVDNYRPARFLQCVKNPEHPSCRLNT
Kind of assay: flow cytometry, transfected Expi293 cells.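 Note: antibody binding to Expi293 cells transiently expressing human or murine CD38, antibodies applied at 10 ug/ml for 60 min on ice, read by flow cytometry as percent gated cells.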 Background: A flow cytometer gives signals particle by particle.

Assay [6] concerns the target T1, His-tagged mouse CD38 (ACRO Biosystems …). Kind of assay: ELISA, coated His-CD38. On the technique in general: An ELISA detects its analyte on a solid surface through an enzyme-linked reagent.
Assay [7] deals with T2, His-tagged human CD38 (ACRO Biosystems …). Kind of assay: ELISA, coated His-CD38.
Assay [8] addresses T3, His-tagged cynomolgus monkey CD38 (ACRO …). Kind of assay: ELISA, coated His-CD38.

The text below walks through data of patent US20220306762A1 (CRYSTAL BIOSCIENCE, published 2022).

For orientation: Kd means the constant that tells how readily two partners part at equilibrium.

B1: 40596p1.A5 (scFv, V domains shown)
VH: EVQLLESGGGLVQPGGSLRLSCAASGFDFSNNAMSWVRQAPGKGLEYVAGSGWSGSFIFYADSVKGRFTVSRDNSENTLYLQMNSLRAEDTAVYYCAKNPGFGEMDVWGQGTTVTVSS
VL: EIVLTQSPGSLSLSPGERATLRCRASQSIGSNLAWYQQKPGQAPSLLIYGASTRAADIPDRFSGSGSGTEFTLTITSLQSEDFAVYYCQQYNSWPPLTFGGGTKVEIK
notes: tested as scFv-Fc supernatant
Regarding B1, the Kd in assay [1] was determined as 6.82 nM; in assay [2], 75.8 nM; in assay [3], 13.6 nM. Besides, the “FACs 10 ug/ml (percent gated)” value in assay [4] was 72.8%; in assay [5] it was 68.7%. Further, the “ELISA 1 ug/ml” value in assay [6] turned out to be 1.81; in assay [7] it was 1.88; in assay [8], 1.97.

B2: 40596p1.G10 (scFv, V domains shown)
VH: EVQLLESGGGLVQPGGSLRLSCAAPGFDFSKNAMSWVRQAPGKGLEYVAGSGWSGSFIFYADSVKGRFTVSRDNSENTLYLQMSSLRAEDTAVYYCAKNPGFGEMDVWGQGTTVTVSS
VL: EIVLTQSPGSLFLSPGERATLTCRASQTIGSNLAWYQQKFGQAPRLLIYGASTRAADIPDRFSGSGSGTEFTLTISSLQSEDFAVYYCQQYNSWPPLTFGGGTKVEIK
notes: tested as scFv-Fc supernatant
For the molecule B2, the dissociation constant (Kd) in assay [1] is 20.8 nM; in assay [2], 67.8 nM; in assay [3] it was 56.3 nM. The “FACs 10 ug/ml (percent gated)” value was 68% in assay [4] and 59% in assay [5]. The “ELISA 1 ug/ml” value in assay [6] came out at 1.74; in assay [7], 1.84; in assay [8], 1.89.

B3: 40596p1.D2 (scFv, V domains shown)
VH: EVQLLESGGGLVQPGGSLRLSCAASGFDFSKNAMSWVRQAPGKGLEYVAGSGWSGSFIFYADSVKGRSTVSRDNSENTLYLQMSSLRAEDTAVYYCAKNPGFGEMDVWGQGTTVTVSS
VL: ELVLTQSPGSLFLSPGERATLTCRASQTIGSNLAWYQQKFGQAPRLLIYGASTRAADIPDRFSGSGSGTEFTLTISSLQSEDFAVYYCQQYNSWPPLTFGGGTKVEIK
notes: tested as scFv-Fc supernatant
Turning to B3, the Kd in assay [1] came to 19 nM; in assay [2], 63.7 nM; in assay [3], 154 nM. The “FACs 10 ug/ml (percent gated)” value in assay [4] turned out to be 71.5%; in assay [5], 61%. In addition, the “ELISA 1 ug/ml” value in assay [6] came to 1.77; in assay [7], 1.98; in assay [8] it was 1.85.

B4: 40617p1.2.A3 (scFv, V domains shown)
VH: EVQLLESGGGLVQPGGSLRLSCAASGFTFSNYWMTWVRQAPGKGLEWVSAISSYGGNYIYYADSVKGRFTISRDNSKDTLYLQMNSLRAEDTAVYYCAKDWDDGMDVWGQGTTVTVSS
VL: EIVMTQSPAVLSVSPGERATLSCRASQSVNSKLAWYQQKPGQAPRLLIYGASTRAAGIPDRFSGSGSGTDFTLTISSPQSEDFAVYYCQHYYDLPPYSFGGGTKVEIK
notes: tested as scFv-Fc supernatant
For the molecule B4, the Kd worked out at 75.5 nM in assay [1], 28.1 nM in assay [2] and 92.8 nM in assay [3]. Further, the “FACs 10 ug/ml (percent gated)” value in assay [4] is 70.3%; in assay [5], 69.4%. Besides, the “ELISA 1 ug/ml” value in assay [6] amounted to 0.745; in assay [7], 1.75; in assay [8] it was 1.7.

B5: 40596p1.B1 (scFv, V domains shown)
VH: EVQLLESGGGLVEPGGSLRLSCAASGFDFSTYAMTWVRQAPGKGLEWVAGNGWSGSFIYYADSVKGRFTISRDNSKNTLYLQMNSLRAEDTAVYYCTRNPGFGEMDVWGQGTTVTVSS
VL: EIVLTQSPGTLRLSPGERATLSCKASQTVGTTLAWYQQKPGQAPRLLIYGASTRATGIPDRFSGSGSGTEFTLTISSLQSEDFADYYCQQYKSWPPLTFGGGTKVEIK
notes: tested as scFv-Fc supernatant
On to B5, for which the Kd worked out at 9070 nM in assay [1], 46600 nM in assay [2] and 110 nM in assay [3]. The “FACs 10 ug/ml (percent gated)” value in assay [4] stood at 66.1%; in assay [5], 45.4%. For the same molecule, the “ELISA 1 ug/ml” value in assay [6] was 1.76; in assay [7], 1.79; in assay [8] it was 1.99.
